Reference: the DeepSol protein solubility set

Assay: soluble on expression in E. coli; label from the status in PepcDB or PDB records

Sequence | soluble on expression in E. coli
HHHHHHSSGLVPRGSHMTAQTVTGAVAAAQLGATLPHEHVIFGYPGYAGDVTLGPFDHAAALASCTETARALLARGIQTVVDATPNGCGRNPAFLREVSEATGLQILCATGFYYEGGGATTYFKFRASLGDAESEIYEMMRTEVTEGIAGTGIRAGVIKLASSRDAITPYEQLFFRAAARVQRETGVPIITHTQEGQQGPQQAELLTSLGADPARIMIGHMDGNTDPAYHRETLRHGVSIAFDRIGLQGMVGTPTDAERLSVLTTLLGEGYADRLLLSHDSIWHWLGRPPAIPEAALPAVKDWHPLHISDDILPDLRRRGITEEQVGQMTVGNPARLFG | soluble
MSLKATYSMLSQVTFPLAEAGYYVVPVALADETFRQNGLTSAGDVHQVSPAKLREIYGADAALYVTVSDYGTRYMVISSATIVTASAKLVDLRSGTTLWTGSATASSEEGNGGNNGGLVGMLITAAVKQIINSSVEDAGYPIAGMTSARLLSAGQPGGLLYGPRSPRYGSDEGHHHHHH | soluble
MPYPKKVTIKEVGPRDGLQNEPVWIATEDKITWINQLSRTGLSYIEITSFVHPKWIPALRDAIDVAKGIDREKGVTYAALVPNQRGLENALEGGINEACVFMSASETHNRKNINKSTSESLHILKQVNNDAQKANLTTRAYLSTVFGCPYEKDVPIEQVIRLSEALFEFGISELSLGDTIGAANPAQVETVLEALLARFPANQIALHFHDTRGTALANMVTALQMGITVFDGSAGGLGGCPYAPGSSGNAATEDIVYMLEQMDIKTNVKLEKLLSAAKWIEEKMGKPLPSRNLQVFKSSLEHHHHHH | soluble
QVQLQESGGGLVQPGGSLRLSCAASGFAFSGYAMSWVRQAPGKGLEWVSGINRDGSTSYTAPVKGRFTISRDNAKNILYLQMNSLRPEDTAVYYCAKWLGGRDWYDRGQGTQVTVS | soluble
PNSPINKLVLNDIGPQIPIHGLRRIAKYAGKAPDFKSLEEAKQHFKASYADFGITNEKQWDIFTKNSVEQRGPNLYVTKMDPAIKKSKSILQIISEFFRHPHKALEGIFYDINLWSIWKQIKCPVIVIHGVNSDILTSEIITQMKKTHALTEVYEVENAGHAPALLDLTVHQRIEDWLATH | not soluble
MESKREYDYILPGRAESYWLATVPEPSYPALKGDIRVDIAIIGGGIAGLTTAYLLKEAGFSSIAVIEAGRILRGVTGHTTAKVTSQHSLIYDRLLSKFGKRQAQQYAESNQAALEKIASIVASKKIDCDFVRKPSYVYAGSEDSTNKIQNEAQTARNLGLPASFEENLPLPFKTYGAVRFNNQAQFHPVKYLNALAEQIHEGGCHIFENTRALKIEGEEPVTITTDKGTIRAHKVVQAMHYPIHDRPGLFFQRLYQSRSYVLGVRIRDPFPDGMFINAEEPVRSLRSQSTDKGELILVSGEGHRTGEEEHEISRYQNLEKWVRSVYSVDSIDYRWSSQDAISIDHIPYIGRQTSGNDSIFLATGFKKWGMTMGTVAAMIIKDMIREKYNPWEEVYDPSRFKPVESAKTLLSQAVEATKGFVGDRILPTHKEASQIGPEEGAIVKIEGERVAAYRDRNGVLYTLNPSCRHLGCIVSWNDAEKTWDCPCHGSRYKATGEVIHSPAVYGLSEKKIRGQDKNNIHTLEHHHHHH | soluble
LGGNANAGLEVLKDATAQAIADAKALLAAGKVSVKIQEPCDEILFSRAKVWNGEKWACVTIVGGHTNIVHIETHNGVVFTQQACVTEGEQESPLTVLSRTTLAEILKFVNEVPFAAIRFILDSAKLNCALSQEGLSGNWGLHIGATLEKQCARGLLAKDLSSSIVIRTSAASDARMGGATLPAMSNSGSGNQGITATMPVVVVAEHFGADDERLARALMLSHLSAIYIHNQLPR | not soluble
MKAKITGEDDVRVGLHVTDNNGVKHKIEMEFNGEIKYHNQDGYPDKPKNRTPNGNAHVNQTCRYARYHVYQETEYTPLPPEENLPGIKKVKQAIADLSVKEFEAYFSDTYDQVLSNHPSVTPPVPHPESVPQNGYILYLIDVYLDDNDEIEAVSDIHLQYLDENGDKTQDWNDDPFPDRQPDARLQLFGKYVPSMDVFQEFVVYHLRCQLRDVYIGAGLEPPEKYRVLGRGDDDLTSRYHNDKVTIYDDYHLEEADIPGYELEFDYGFGELGKQSVINAKRKGIGAENPDDADSRLANPSQDGEEGLLETVSSVLRGSDTDQTET | not soluble
